The DeepSol protein solubility set

experiment: soluble on expression in E. coli; label from the status in PepcDB or PDB records

Sequence | soluble on expression in E. coli
MTDNLNLGAIDLGTDDEFIARHIGPRAADTQAMLQRLGYDSLDTLIGNVIPDSIKGSSVLDLPAGMGEAEALASLKAIAARNRALRSFIGQGYYNCHTPAPILRNLLENPAWYTAYTPYQPEISQGRLEALLNFQTLVSDLSGLPIANASMLDEATAAAEAMTFCKRLSKNRTSQAFFASRHCHPQTLDVLRTRAEPLGIEVVVGDESTIEDFSAYFGALLQYPTCDGEIVDYRELVSRFHAVDALVAVAADLLALTLLTPPGEFGADVAIGSAQRFGVPLGFGGPHAAYFATRDAFKRDMPGRLVGVSIDRHGKPAYRLAMQTREQHIRREKATSNICTAQVLLANIASMFAVYHGPQGLLRIARRTHRLTAILAAGLERLGVAVEQKHFFDTLSLATGARTAAIHAKARAAGINLREIDAGRLGLSLDETVRQTDVETLWGLLAEEGQALPDFAALAASSGDRLPVELLRQSAILSHPIFNRHHSETELMRYLRKLADKDLALDRTMIPLGSCTMKLNAASEMIPVTWAEFGNLHPFAPAEQSEGYRQLTDELEAMLCSATGYDAVSLQPNAGSQGEYAGLLAIRAYHQSRGDSQRDICLIPSSAHGTNPATASMVGMRVVVVACDARGNVDVEDLRNKASEHKERLAALMITYPSTHGVFEEAIREICAIVHDCGGQVYIDGANMNAMVGLCAPGKFGGDVSHLNLHKTFCIPHGGGGPGVGPIGVRAHLAPFLPGHARGERKEGAVSAAPYGSASILPITWMYIRMMGGEGLKRASEMAILNANYIAHRLEEHYPVLYAGGNGLVAHECILDLRPLKDSSGISVDDVAKRLMDFGFHAPTMSFPVAGTLMIEPTESESKAELDRFCDAMIRIREEIRAVERGELDKEDNPLKNAPHTAAELLGEWNHAYSREQAAYPLASLVEAKYWPPVGRVDNVYGDRNLTCSCPPIEAYS | not soluble
MTEAPKIEKSFNEISDMEQIFVEHHSFGIVSLSSISESLKRLELSADLNIQELLAIKKVLQSSSDMIHFYSDLDNVSFQSLDRLFENLEQFPNLQGSFQAINDGGFLEHFASPELERIRRQLTNSERRVRQILQDMLKEKAELLSENLIASRSGRSVLPVKNTYRNRISGVVHDISSSGSTVYIEPRAVVTLNEEITQLRADERHEESRILHAFSDLLRPHVATIRNNAWILGHLDFVRAKYLFMSDNKATIPEISNDSTLALINVRHPLLSNPVANDLHFDQDLTAIVITGPNTGGKTIMLKTLGLAQLMGQSGLPVLADKGSKIAVFNNIFADIGDEQSIEQSLSTFSSHMTHIVSILNEADHNSLVLFDELGAGTDPQEGASLAMAILEHLRLSNIKTMATTHYPELKAYGIETNFVENASMEFDAETLSPTYRFMQGVPGRSNAFEIASRLGLAPFIVKQAKQMTDSDSDVNRIIEQLEAQTLETRRRLDHIKEVEQENLKFNRAVKKLYNEFSHERDKELEKIYQEAQEIVDMALNESDTILKKLNDKSQLKPHEIIDAKAQIKKLAPQVDLSKNKVLNKAKKIKAARAPRIGDDIIVTSYGQRGTLTSQLKDGRWEAQVGIIKMTLTQDEFTLVRVQEEQKVKSKQINVVKKADSSGPRARLDLRGKRYEEAMQELDNFIDQALLNNMGQVDIIHGIGTGVIREGVTKYLRRNKHVKHFAYAPQNAGGSGATIVTLGLEHHHHHH | not soluble
MTEEILKQGVGIVETSLTFEPPFCESFERISIDNFPIFALGKEISKEDGIEAMKKYVTSRFWFTYRRDFSPIGGTGPSTDQGWGCMLRCAQMLLGEVLLRRHIGRHFEWDIEKTSEIYEKILQMFFDEKDALYSIHQIAQMGVTEGKEVSKWFGPNTAAQVMKKLTIFDDWSNIAVHVALDNILVKEDAITMATSYPSEDAVKLIMGKKGLQTTKRKNRKNLDFTVKYLKQIKFFKFFNLFQIFYENGLVDKNRLSLSPGNIIPEWRPLLLMIPLRLGLTTINPCYLSAIQEFFKIPQCVGIIGGRPNHALYFVGMSGSKLFYLDPHYCRPKTESTAKMYAEKDSTATTDDVGFSHLEELVPLPSQTADVYTKMDDSTYHCQMMLWIEYENVDPSLALAMFCETRDEFENLCETLQKTTLPASQPPMFEFLQRRPKYLPKFEPYTGVSMKIEMKEFDDIGAANVKIDDDFEVLDVHTEEEDADEDNDDDVANA | not soluble
MTEGDDQLISIRKQLENLNNATDDINSYEMKLETVKKQFCETQLMFNKEMLGIPKKLAKHISKSRQFFDLKSRESEIRRCVQQAAAQFERQKTSVEMAREQVQILHNSLNNNQELDAEKQYVDVIEQQLELVKEAEGECLKAEKCHASRVRDLLQLEMALRKCLEENGSAIKKSRPYYERKEVLTRTMNSQLELMSILEHEVQERKDSYSDSMRALEQISDQIHQERSSQSSLAPSSDAESDSS | not soluble
MTEHRPAIELEEIPTLLERIEGYKGRSRLTQLAIKLNLLIFIRSSELRFARWSEIDFKSGLWVIPEQREAIKGIKHSDRGAKMRRKHYVPLCEQALVILGELKDLTYDVNGDDGFILTGCYDAMKPMSENTINKALRKMGYDTKTDLCGHGFRTLACSALIESGIWPEDVVELQMSHMEKNNVRAAYTHKAKHLEQRRLMLQWWADFLDANGSGMVRPFEFAQGATQYLEHHHHHH | not soluble
MTEHTGLWLYAVADQLPDGRLPCPAGIDEAPVEAIAHDGLAAVVSPVDLHHYGEEALARRLEDFDWLAATANRHHAVIEAVHHLSTTVPMRLATVYTEPRRVSTLLAEQHDLLRRALDSVAGHTEWGVKAFAVNRPQAPPAAGGEESGAAYLRRRRAELANADAVRQEVWDAAQHAFHELGLLAVAQRRHRPQDAKLTGKPEPMLLNGSFLVEDTEQDAFTKAVSTLTADHPELEIQLSGPWPPYSFAGLAVEA | not soluble
MTEKEKMLAEKWYDANFDQYLINERARAKDICFELNHTRPSATNKRKELIDQLFQTTTDNVSISIPFDTDYGWNVKLGKNVYVNTNCYFMDGGQITIGDNVFIGPNCGFYTATHPLNFHHRNEGFEKAGPIHIGSNTWFGGHVAVLPGVTIGEGSVIGAGSVVTKDIPPHSLAVGNPCKVVRKIDNDLPSETLNDETIK | soluble
MTEKVSRFPGVFPLIVIGVPGSVDKTHKKLAFAPNLNRWRDIDVEKYFKVFEVYLENDANLAALAEMMRNKHFGDRKNIVYILVREGIGGGIIIEGKLYKGSFNAAGEIGHMKMYDRGPCFCGRVGCWEANTSISHCVRQYEKKKPLPGNTMYEKFETLCRIYEEDPLAKEVLDEFTGILIDGIVNLVNILSPEIVIVGGEGVFLPESVFEVIVSETRRQVHPMDKEVSVEKGSLSNKEVVLEGTSILSSMMISERLV | soluble
MTENCCVPGGTVMILSCSGGSNVGQLSNQAAVELTREGVGKMFCLAGIGGQLSGFVQSARDVPEMVTIDGCSVGCAKAILEKARVPLKSYLVLTDLGIEKNKNFELSSHDIRRVKEAVKALLFEK | soluble
MTEPTVARPDIDPVLKMLLDTFPVTFTAADGVEVARARLRQLKTPPELLPELRIEERTVGYDGLTDIPVRVYWPPVVRDNLPVVVYYHGGGWSLGGLDTHDPVARAHAVGAQAIVVSVDYRLAPEHPYPAGIDDSWAALRWVGENAAELGGDPSRIAVAGDSAGGNISAVMAQLARDVGGPPLVFQLLWYPTTMADLSLPSFTENADAPILDRDVIDAFLAWYVPGLDISDHTMLPTTLAPGNADLSGLPPAFIGTAEHDPLRDDGACYAELLTAAGVSVELSNEPTMVHGYVNFALVVPAAAEATGRGLAALKRALHA | soluble
MTEQKNKTSLIEFPCTFPLKVMGAVHPEFEQAVLDTVRLHAPDTQAHHITTRPSSKGNYTGATVQVKVENQEQLDNIYRALTSHELVKVVL | not soluble
MTEQQKFKVLADQIKISNQLDAEILNSGELTRIDVSNKNRTWEFHITLPQFLAHEDYLLFINAIEQEFKDIANVTCRFTVTNGTNQDEHAIKYFGHCIDQTALSPKVKGQLKQKKLIMSGKVLKVMVSNDIERNHFDKACNGSLIKAFRNCGFDI | not soluble
MTEQYYKIALLFNANKVYDRQVVEGIGQYIQASQCMWDIFVEDEFIYHTDTINQLSIDGIIADFDDPKTVELLQHTLIPTIAVGGSYKQADFYPHFPYIATDNMALVEMALSHLQEKGLSQFAFYGLQVNTHKHWSIERRDAFVELMEKNHYPIYLYEGVQVHAQNWLEEQQKLIVWLKSLPSHTGIIAVTDARARHLLQACEYSKIAVPEELCVVGIDNEELIQYLSRMSLSSVEQGTREIGYQAAKLLHKLLNGQKVSHTPILIPPITVHSRNSTDYRSLTDPLVIQAMHYIRHRACHRIKVGQVLDHLETSRSNLEQRFKNEMNKTIHQVIHEEKISRAKNLLQQTDISIKEITEICGYPSIQYFYSVFKKEFEMTPKEFRLNC | not soluble
MTESEVRKLLRQMKELDSQTAFRDFYNMTYDRLFRIAYYYVKQEEWSQEIVLDIFLKLWKQRDTLLDVKNIEDYCFILVKNASLNYLEKESKYTTIHSDSLPEPQEQSYSPEESLISEELFAIYVKALDRLPERCREIFIRIREEKQSYAQVAEELDISIKTVDAQLQKAVSRLKEMISSSG | not soluble
MTFAPGFSGGLSPAYRLGSRRSPSPFSEEVRAEEGPGAGGFSQVFHTPCLCLGTMRWKSVLGLAVLLLASLALAQALTLDLRPYLVKVVEGKEVYEANPLAVRPGDVLEWRLVAENRAQGDLRQVALVIPIPKETYYLEGSAKPLQVGGTIVPPEFSFDGGKTFGRPPLKKRIRVVENGKEVEKEVEVKPEEYTHARWVIPVLSKGDKVMVSLRTIVR | soluble
MTFEDLHEYLDYLAKKNDLVTITEEVDPNLDLTYILSEEERMGRGRTILFKNVKGSQVPAVGNLFSTNEKLKAVLGDDPYSIGVKIADIVKPPRDSESFIGKGLEMMRELSGLRPKVSNSIPSGYSELEKVDLYRYPICKTWPDDGGPFITLPLVITKDPSTGIRNMGMYRMQVYDSETTGMHWHIHKGGSENFLKEKEKGKAMDVAVVIGSDPLTIFSAVAPLPNGIDEFMFRGLISRKRSELVKGKTVDLEYPRNFEIVLEGYIDPSETRVEGPFGDHTGYYSLEEEFPVFHVKNIIERNDRIYPTTIVGKLWHEDVVLGKAVERMFLPLIQMVLPEVVDINTMEEAVFHNMVIVSIKKRYPGHAKKVMFALWGLGQLMFSKIIVVVDDDINIHNRKELIWAMTTRIDPDRDVIIIPGTVTDSLDHAAPLFNYGSKMGIDATKKDKSEGYTRRWPDVLEMPKDVVDKVRQIMKNNRLIQLEHHHHHH | not soluble
MTFELKYTDRSYLPDQFKAISGNPPVEWKVTNNLVEYPEALRYMQERVENILAQNAHEQVWLLEHPSLYTAGTSAKKKDLLTPHLFPVYEAGRGGEFTYHGPGQRIAYIMLDLKRRRQDIRAFISALEEWIIQMLAKFNIKGERREDRVGVWVQRHSCQSTQNSLYSEDKIAAIGIRVRKWVSFHGVSINVDPNLAHYSGIVPCGITNHGVTSFLDLGLPTKMHDIDIALKQSFEQIFGPIIDIS | not soluble
MTFTPPEFKILSVNTRNLETIFSTLLGRYKIITDPPVSEAVSSGEIIRNTLETLLARTHKVVICKTDRETARDVFKQLSNELREVLKENNEEKNKQAILFLLGALLHRYFRLIKEYDNFNSYIPYPSFLFSKPPSNVKDCRLFQAIRLALGLPEVMERNYRINDLKILDVTTIVTALETFRDNMQLIVGKDEGKMPRYKSYPHFAADKNFETYLQEIIDEHKRRNPVVLNQFKAINFIQSLVKQIEEEQRQIEEALTHLGKFLPKTCSDFKTISLELMEEQIKAQIESNVLQEKIIDLLYTGHIQENFSTMDCGSFIEAMKNCNSSLARYRALGGYCLLLQNEGVKEQLRFCIHQALGVEINPNELTDKDMLDAIRLLKTYFEANPKVELNFDFFNGKGSMNTFILQTELALAKKVQTVNKAQEDNSETRTTSLFV | not soluble
